Results taken from PMC12676778, “Long-tailed class I myosins rely on tail-mediated phosphoinositide recognition for specific membrane recruitment” (Cell Communication and Signaling : CCS, 2025).
Entries after “also recorded” stand apart in the source; their conditions may differ.

B1: Myosin-1B-tail: Recombinant GST-/YFP-tagged tail construct of Dictyostelium discoideum myosin-1B (amino acids 717–1111) (protein)
chain: QRAQIAHMFKDKKERQRNSIDRKFTSDYIDFENQFGLQEAMQNAHKKERVVFADTVIKIDRRAKQKNYEMVLTDQALYFVEKSIKKKVLVHTLIRRVGLREIKGVSISTLSDNVIVFHLPEHDQVIENDKKTEIIIVLVEYFKAIGGGSLNVQFSDRINYTLKKGEQKEISFQKSEQCPTLVVKKGGKGLIGTIASGLPSSTDSTPKNYNPNSMSQASSRPAPQQSAGRGRGMPQGAGQPQPQQPQQQQRPMPQPQQGGGARPMPQPQQGGGARPMGAPQQGGAPQQGAGRQLPQPTQQGGAPGGRGAPMGRGAPGGGPAGAGGRPLPTVAKPAPQPSRPTAKALYDYDASSTDELSFKEGDIIFIVQKDNGGWTQGELKSGQKGWAPTNYLQYN
modifications: left off: GST, N-terminal, state not stated | YFP, C-terminal, kept
B2: Myosin-1C-tail: Recombinant GST-/YFP-tagged tail construct of Dictyostelium discoideum myosin-1C (protein)
chain: RYWHDMASRIKNAYRNYKAFQFECSNRIKNAFRNYKLYRQRCAQTIQGYFRAWKQASPFFDLRMQNEQLFQGRKERNRFSMISVRKYFGDYLDVRSQSYFLDAMAEGRNEDVIFSSKSQVMVHPILSANKLSPRFLIVTKQAIYLIKLKQKKNLATYLLDRRVPLAEVTSFSLSSLADNLLVIHTSTQFDVAVTTEFKTELVALINKQKGTTLAVNFGQSIQYFKKKGSNNTVTFLKDEMHKEIFLKKNQFHIASGLPASTTVAKVRKNPSQVSTPSKPIAKPVAKPMVAKPSGGSVIMKKPAPAAPPSGPPVMKKPAPTAPGGAPMMKKPAPAPGGAPMMKKPAPVPGGPAPGGSAIMKPAGGVSKPLPSPTGAPMMKKPAPTAPGGPAPAGAPTPMMKKPAGQPMMKPIAKPQPTPMKKPAAPPPQQYIALYEYDAMQPDELTFKENDVINLIKKVDADWWQGELVRTKQIGMLPSNYVQQI
modifications: left off: GST, end not stated, state not stated | YFP, end not stated, kept
notes: Recombinant GST-/YFP-tagged tail construct of Dictyostelium discoideum myosin-1C

How the values were obtained:
PC, PS lipid vesicles = test: Cosedimentation of myosin-1 tails with lipid vesicles devoid of phosphoinositides; details: 500 nM tail; vesicles without phosphoinositide; read-out: KD, tail binding to PC, PS
Method: (§1) Phospholipid binding assays were performed using commercially available lipid vesicles (PolyPIPosomes™, 200 nm diameter; Echelon Biosciences) composed of 95% PE + PC and 5% of the phosphoinositide of interest. Accessible phospholipid concentration was calculated as half of the total phospholipid content. Myosin-1 tail (500 nM) in co-sedimentation buffer (10 mM Tris, pH 7.5, 100 mM NaCl, 1 mM EGTA) was incubated with increasing concentrations of PolyPIPosomes™ (accessible PIP range: 10 nM to 10 mM) at room temperature for 30 min, followed by centrifugation at 25,000 g to separate bound and unbound fractions. Bound myosin-1 tail was quantified either by measuring fluorescence intensity of the supernatant (Jasco FP-6500 fluorimeter, excitation 514 nm) or by western blot of pellet and supernatant fractions using anti-GST antibody as indicated in the experiments. […] Microtubule binding assays employed 100 mM PIPES (pH 6.8), 2 mM MgCl2, 1 mM EGTA, 20 µM paclitaxel, and 1 mM GTP. […] Fluorescence intensities of pellet and supernatant fractions were quantified as described above. […]
(§2) Fig. 1 Myosin-1 tail binding to phosphoinositides. a Representative fluorescence spectra of supernatants from co-sedimentation assays with YFP-tagged myosin-1D tail and increasing concentrations of lipid vesicles containing PI(3,5)P₂. […]

[1] = molecular target: PI(3,4)P2 lipid vesicles (PolyPIPosomes); test: Cosedimentation of myosin-1 tails with PI(3,4)P2 vesicles; details: 500 nM tail; vesicles with 5% phosphoinositide; read-out: KD, tail binding to PI(3,4)P2
Method: as §1, §2

[2] = test system: isolated nuclei from Dictyostelium cells; test: Binding of YFP-tagged myosin tail constructs to isolated nuclei, confocal microscopy; set-up: species or system Dictyostelium discoideum; details: 1 µM tail construct, 30 min
[3] = molecular target: PI (unphosphorylated phosphatidylinositol) lipid vesicles; test: Fluorescence-based cosedimentation of myosin-1 tails with lipid vesicles containing PI; details: 500 nM tail, accessible phospholipid, read-out: KD, tail binding to PI
Method: as §1, §2

[4] = molecular target: PI(4)P lipid vesicles (PolyPIPosomes); test: Cosedimentation of myosin-1 tails with PI(4)P vesicles; details: 500 nM tail; vesicles with 5% phosphoinositide; read-out: KD, tail binding to PI(4)P
Method: as §1, §2

[5] = test system: PI(3,4,5)P3 lipid vesicles; test: Competitive binding of myosin-1 tails to PI(3,4,5)P3 vesicles (western blot of supernatant and pellet)
Method: Phospholipid binding assays were performed using commercially available lipid vesicles (PolyPIPosomes™, 200 nm diameter; Echelon Biosciences) composed of 95% PE + PC and 5% of the phosphoinositide of interest. Accessible phospholipid concentration was calculated as half of the total phospholipid content. Myosin-1 tail (500 nM) in co-sedimentation buffer (10 mM Tris, pH 7.5, 100 mM NaCl, 1 mM EGTA) was incubated with increasing concentrations of PolyPIPosomes™ (accessible PIP range: 10 nM to 10 mM) at room temperature for 30 min, followed by centrifugation at 25,000 g to separate bound and unbound fractions. Bound myosin-1 tail was quantified either by measuring fluorescence intensity of the supernatant (Jasco FP-6500 fluorimeter, excitation 514 nm) or by western blot of pellet and supernatant fractions using anti-GST antibody as indicated in the experiments. […] Microtubule binding assays employed 100 mM PIPES (pH 6.8), 2 mM MgCl2, 1 mM EGTA, 20 µM paclitaxel, and 1 mM GTP. […] Fluorescence intensities of pellet and supernatant fractions were quantified as described above.
To gain deeper insight into the binding specificity of the myosin tails, we conducted competition experiments in which two tail constructs were simultaneously present in the PIP-binding assay, allowing us to assess their ability to compete for binding to the same lipid species. We performed these experiments using PI(3,4,5)P₃ (PIP₃) as an exemplary lipid, first in the absence and then in the presence of a second tail isoform. Two tail pairs were tested: those of myosin-1B and myosin-1D, and those of myosin-1C and myosin-1D (Figs. 3a, c). […] These findings establish myosin-1D as the dominant binder of PIP₃, capable of outcompeting myosin-1B and myosin-1C for membrane association.
Fig. 3 Competitive binding of myosin-1 tails to PI(3,4,5)P₃. a, c Western blots of supernatant and pellet fractions from lipid vesicles containing PI(3,4,5)P₃ following incubation with 2 µM myosin-1B tail (~ 70 kDa) (a) or myosin-1C tail (~ 70 kDa) (c) in competition with myosin-1D tail (~ 100 kDa). The total accessible PI(3,4,5)P₃ concentration was maintained at 2 µM. b, d Dashed boxes indicate the fraction of myosin-1 tails bound to lipid vesicles in the absence of the other myosin isoform. Orange bars denote the fraction of bound myosin in the presence of the competing myosin TEXT PRINTED IN THE PICTURE: (b) myosin-1D: % myosin bound to PI(3,4,5)P3: 90%; % myosin bound to PI(3,4,5)P3: 86% | (b) myosin-1B: % myosin bound to PI(3,4,5)P3: 71%; % myosin bound to PI(3,4,5)P3: 32% | (d) myosin-1D: % myosin bound to PI(3,4,5)P3: 94%; % myosin bound to PI(3,4,5)P3: 85% | (d) myosin-1C: % myosin bound to PI(3,4,5)P3: 32%; % myosin bound to PI(3,4,5)P3: 9%

microtubules and F-actin = test: TIRF microscopy of microtubule/F-actin cross-linking by myosin-1 tails; format: biochemical; details: 1 µM tail construct
[6] = molecular target: PI(3,4,5)P3 lipid vesicles (PolyPIPosomes); test: Cosedimentation of myosin-1 tails with PI(3,4,5)P3 vesicles; details: 500 nM tail; vesicles with 5% phosphoinositide; read-out: KD, tail binding to PI(3,4,5)P3
Method: as §1, §2

[7] = molecular target: PI(3)P lipid vesicles (PolyPIPosomes); test: Cosedimentation of myosin-1 tails with PI(3)P vesicles; details: 500 nM tail; vesicles with 5% phosphoinositide; read-out: KD, tail binding to PI(3)P
Method: as §1, §2

[8] = molecular target: PI(5)P lipid vesicles (PolyPIPosomes); test: Cosedimentation of myosin-1 tails with PI(5)P vesicles; details: 500 nM tail; vesicles with 5% phosphoinositide; read-out: KD, tail binding to PI(5)P
Method: as §1, §2

[9] = molecular target: PI(3,5)P2 lipid vesicles (PolyPIPosomes); test: Cosedimentation of myosin-1 tails with PI(3,5)P2 vesicles (fluorescence or immunoblot detection); details: 500 nM tail; vesicles with 5% phosphoinositide; read-out: KD, tail binding to PI(3,5)P2
Method: Phospholipid binding assays were performed using commercially available lipid vesicles (PolyPIPosomes™, 200 nm diameter; Echelon Biosciences) composed of 95% PE + PC and 5% of the phosphoinositide of interest. Accessible phospholipid concentration was calculated as half of the total phospholipid content. Myosin-1 tail (500 nM) in co-sedimentation buffer (10 mM Tris, pH 7.5, 100 mM NaCl, 1 mM EGTA) was incubated with increasing concentrations of PolyPIPosomes™ (accessible PIP range: 10 nM to 10 mM) at room temperature for 30 min, followed by centrifugation at 25,000 g to separate bound and unbound fractions. Bound myosin-1 tail was quantified either by measuring fluorescence intensity of the supernatant (Jasco FP-6500 fluorimeter, excitation 514 nm) or by western blot of pellet and supernatant fractions using anti-GST antibody as indicated in the experiments. […] Fluorescence intensities of pellet and supernatant fractions were quantified as described above. […]
as §2
Supplementary Fig. S2. Lipid dot blot assays and comparisons between fluorescence-based detection and immunoblot detection of myosin-1-PI(3,5)P2 interactions. […]

microtubules [10] = molecular target: microtubules; set-up: method as in Rump et al., 2010; details: ref Rump et al., 2010; read-out: KD, tail binding to microtubules; cited from earlier work
[11] = molecular target: PI(4,5)P2 lipid vesicles (PolyPIPosomes); test: Cosedimentation of myosin-1 tails with PI(4,5)P2 vesicles; details: 500 nM tail; vesicles with 5% phosphoinositide; read-out: KD, tail binding to PI(4,5)P2
Method: as §1, §2

microtubules [12] = test system: microtubules; set-up: method as in PMID 21712373; details: read-out: Inhibition of the cold-induced depolymerization of microtubules IC50; cited from earlier work
[13] = in presence of competing myosin-1D tail, 2 µM each, PI(3,4,5)P3 2 µM
[14] = single tail 2 µM, absence of other isoform, accessible PI(3,4,5)P3 2 µM

Molecule	Kd (PC, PS lipid vesicles) [µM]	Kd [1] [nM]	association of YFP-tagged tail construct with isolated nuclei [2]	Kd [3] [µM]	Kd [4] [nM]	% myosin bound to PI(3,4,5)P3 [5, 13] [%]	% myosin bound to PI(3,4,5)P3 [5, 14] [%]	cross-linking of microtubules and actin filaments (microtubules and F-actin)	Kd [6] [nM]	Kd [7] [µM]	Kd [8] [µM]	Kd [9] [nM]	Kd (microtubules [10]) [nM]	Kd [11] [nM]	IC50 (microtubules [12]) [nM]
B1	> 100	2200 ± 400	do not bind to nuclei; also recorded: did not associate with the nuclei	38.2 ± 4	2300 ± 400	32	~71	not observed	1100 ± 200	8.3 ± 1	7.7 ± 0.6	–	–	–	–
B2	31.5 ± 2.7	–	do not bind to nuclei; also recorded: did not associate with the nuclei	5.4 ± 0.8	400 ± 100	9	~32	cross-linking activity	2500 ± 300	4 ± 0.3	0.5 ± 0.1	600 ± 100	80 ± 50	1100 ± 200	~2
